# Results published in IntAct's records for PubMed 18320024.
# B1: Tetratricopeptide repeat protein 4 (Homo sapiens), O95801 (parent)
# chain: MEQPGQDPTSDDVMDSFLEKFQSQPYRGGFHEDQWEKEFEKVPLFMSRAPSEIDPRENPDLACLQSIIFDEERSPEEQAKTYKDEGNDYFKEKDYKKAVISYTEGLKKKCADPDLNAVLYTNRAAAQYYLGNFRSALNDVTAARKLKPCHLKAIIRGALCHLELKHFAEAVNWCDEGLQIDAKEKKLLEMRAKADKLKRIEQRDVRKANLKEKKERNQNEALLQAIKARNIRLSEAACEDEDSASEGLGELFLDGLSTENPHGARLSLDGQGRLSWPVLFLYPEYAQSDFISAFHEDSRFIDHLMVMFGETPSWDLEQKYCPDNLEVYFEDEDRAELYRVPAKSTLLQVLQHQRYFVKALTPAFLVCVGSSPFCKNFLRGRKVYQIR
# partner: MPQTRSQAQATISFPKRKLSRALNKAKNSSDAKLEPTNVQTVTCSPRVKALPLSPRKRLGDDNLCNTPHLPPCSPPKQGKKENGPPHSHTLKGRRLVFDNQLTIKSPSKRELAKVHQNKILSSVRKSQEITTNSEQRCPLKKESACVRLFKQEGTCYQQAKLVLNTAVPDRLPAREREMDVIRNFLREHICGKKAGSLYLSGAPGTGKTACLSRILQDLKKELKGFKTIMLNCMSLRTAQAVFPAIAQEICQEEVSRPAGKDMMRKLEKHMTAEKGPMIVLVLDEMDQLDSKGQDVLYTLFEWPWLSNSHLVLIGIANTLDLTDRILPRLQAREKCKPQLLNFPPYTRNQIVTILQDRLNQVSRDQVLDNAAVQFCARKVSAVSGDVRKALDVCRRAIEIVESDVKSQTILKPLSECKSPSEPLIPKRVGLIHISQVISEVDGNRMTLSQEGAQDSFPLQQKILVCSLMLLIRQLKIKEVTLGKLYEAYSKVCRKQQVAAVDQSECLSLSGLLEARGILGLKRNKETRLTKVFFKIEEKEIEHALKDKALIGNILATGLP
# B2: Tetratricopeptide repeat protein 4 (Homo sapiens), O95801 (parent)
# chain: B1 chain
# Variants of: B1
# Conditions: with cdc6_human CDC6, Q99741
row,effect of a mutation on the interaction,Variant
1,with no effect,MEQPGQDPTSDDVMDSFLEKFQSQPYRGGFHEDQWEKEFEKDPLFMSRAPSEIDPRENPDLACLQSIIFDEERSPEEQAKTYKDEGNDYFKEKDYKKAVISYTEGLKKKCADPDLNAVLYTNRAAAQYYLGNFRSALNDVTAARKLKPCHLKAIIRGALCHLELKHFAEAVNWCDEGLQIDAKEKKLLEMRAKADKLKRIEQRDVRKANLKEKKERNQNEALLQAIKARNIRLSEAACEDEDSASEGLGELFLDGLSTENPHGARLSLDGQGRLSWPVLFLYPEYAQSDFISAFHEDSRFIDHLMVMFGETPSWDLEQKYCPDNLEVYFEDEDRAELYRVPAKSTLLQVLQHQRYFVKALTPAFLVCVGSSPFCKNFLRGRKVYQIR [V42D]
2,disrupting interaction strength,MEQPGQDPTSDDVMDSFLEKFQSQPYRGGFHEDQWEKEFEKVPLFMSRAPSEIDPRENPDLACLQSIIFDEERSPEEQAKTYKDEGNDYFKEKDYKKAVISYTEGLKKKCADPDLNAVLYTNRAAAQYYLGNFRSALNDVTAARKLKPCHLKAIIRGALCHLELKHFAEAVNWCDEGLQIDAKEKKLLEMRAKADKLKRIEQRDVRKANLKEKKERKQNEALLQAIKARNIRLSEAACEDEDSASEGLGELFLDGLSTENPHGARLSLDGQGRLSWPVLFLYPEYAQSDFISAFHEDSRFIDHLMVMFGETPSWDLEQKYCPDNLEVYFEDEDRAELYRVPAKSTLLQVLQHQRYFVKALTPAFLVCVGSSPFCKNFLRGRKVYQIR [N217K]
3,with no effect,MEQPGQDPTSDDVMDSFLEKFQSQPYRGGFHEDQWEKEFEKVPLFMSRAPSEIDPRENPDLACLQSMIFDEERSPEEQAKTYKDEGNDYFKEKDYKKAVISYTEGLKKKCADPDLNAVLYTNRAAAQYYLGNFRSALNDVTAARKLKPCHLKAIIRGALCHLELKHFAEAVNWCDEGLQIDAKEKKLLEMRAKADKLKRIEQRDVRKANLKEKKERNQNEALLQAIKARNIRLSEAACEDEDSASEGLGELFLDGLSTENPHGARLSLDGQGRLSWPVLFLYPEYAQSDFISAFHEDSRFIDHLMVMFGETPSWDLEQKYCPDNLEVYFEDEDRAELYRVPAKSTLLQVLQHQRYFVKALTPAFLVCVGSSPFCKNFLRGRKVYQIR [I67M]
4,disrupting interaction strength,MEQPGQDPTSDDVMDSFLEKFQSQPYRGGFHEDQWEKEFEKVPLFMSRAPSEIDPRENPDLACLQSIIFDEERSPEAQAKTYKDEGNDYFKEKDYKKAVISYTEGLKKKCADPDLNAVLYTNRAAAQYYLGNFRSALNDVTAARKLKPCHLKAIIRGALCHLELKHFAEAVNWCDEGLQIDAKEKKLLEMRAKADKLKRIEQRDVRKANLKEKKERNQNEALLQAIKARNIRLSEAACEDEDSASEGLGELFLDGLSTENPHGARLSLDGQGRLSWPVLFLYPEYAQSDFISAFHEDSRFIDHLMVMFGETPSWDLEQKYCPDNLEVYFEDEDRAELYRVPAKSTLLQVLQHQRYFVKALTPAFLVCVGSSPFCKNFLRGRKVYQIR [E77A]

# Variants of: B2
# Conditions: with hs90b_human HSP90AB1, P08238
# hs90b_human HSP90AB1, P08238, sequence (P08238 whole entry): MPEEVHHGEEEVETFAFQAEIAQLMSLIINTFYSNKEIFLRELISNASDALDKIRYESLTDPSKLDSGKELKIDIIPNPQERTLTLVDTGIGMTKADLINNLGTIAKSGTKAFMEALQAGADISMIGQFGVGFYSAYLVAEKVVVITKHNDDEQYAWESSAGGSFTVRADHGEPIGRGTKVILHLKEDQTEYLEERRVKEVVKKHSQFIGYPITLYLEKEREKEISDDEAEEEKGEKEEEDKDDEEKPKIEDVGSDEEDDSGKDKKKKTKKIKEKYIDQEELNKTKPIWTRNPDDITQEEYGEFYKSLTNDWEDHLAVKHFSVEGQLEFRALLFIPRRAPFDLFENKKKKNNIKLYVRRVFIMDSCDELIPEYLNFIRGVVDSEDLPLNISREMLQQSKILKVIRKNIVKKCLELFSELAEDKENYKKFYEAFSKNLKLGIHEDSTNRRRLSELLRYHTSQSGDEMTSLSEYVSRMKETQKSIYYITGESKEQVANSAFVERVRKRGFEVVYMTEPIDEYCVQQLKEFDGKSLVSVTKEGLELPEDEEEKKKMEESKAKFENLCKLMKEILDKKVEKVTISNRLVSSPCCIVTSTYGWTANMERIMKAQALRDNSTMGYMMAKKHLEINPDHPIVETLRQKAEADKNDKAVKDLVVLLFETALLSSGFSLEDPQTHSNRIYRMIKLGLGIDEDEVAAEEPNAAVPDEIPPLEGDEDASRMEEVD
row,effect of a mutation on the interaction,Variant
1,decreasing interaction strength,MEQPGQDPTSDDVMDSFLEKFQSQPYRGGFHEDQWEKEFEKVPLFMSRAPSEIDPRENPDLACLQSIIFDEERSPEAQAKTYKDEGNDYFKEKDYKKAVISYTEGLKKKCADPDLNAVLYTNRAAAQYYLGNFRSALNDVTAARKLKPCHLKAIIRGALCHLELKHFAEAVNWCDEGLQIDAKEKKLLEMRAKADKLKRIEQRDVRKANLKEKKERNQNEALLQAIKARNIRLSEAACEDEDSASEGLGELFLDGLSTENPHGARLSLDGQGRLSWPVLFLYPEYAQSDFISAFHEDSRFIDHLMVMFGETPSWDLEQKYCPDNLEVYFEDEDRAELYRVPAKSTLLQVLQHQRYFVKALTPAFLVCVGSSPFCKNFLRGRKVYQIR [E77A]
2,decreasing interaction strength,MEQPGQDPTSDDVMDSFLEKFQSQPYRGGFHEDQWEKEFEKVPLFMSRAPSEIDPRENPDLACLQSIIFDEERSPEEQAKTYKDEGNDYFKEKDYKKAVISYTEGLKKKCADPDLNAVLYTNRAAAQYYLGNFRSALNDVTAARKLKPCHLKAIIRGALCHLELKHFAEAVNWCDEGLQIDAKEKKLLEMRAKADKLKRIEQRDVRKANLKEKKERKQNEALLQAIKARNIRLSEAACEDEDSASEGLGELFLDGLSTENPHGARLSLDGQGRLSWPVLFLYPEYAQSDFISAFHEDSRFIDHLMVMFGETPSWDLEQKYCPDNLEVYFEDEDRAELYRVPAKSTLLQVLQHQRYFVKALTPAFLVCVGSSPFCKNFLRGRKVYQIR [N217K]

# More lines, now with the values behind:
row,Variant,effect of a mutation on the interaction
1,MEQPGQDPTSDDVMDSFLEKFQSQPYRGGFHEDQWEKEFEKVPLFMSRAPSEIDPRENPDLACLQSMIFDEERSPEEQAKTYKDEGNDYFKEKDYKKAVISYTEGLKKKCADPDLNAVLYTNRAAAQYYLGNFRSALNDVTAARKLKPCHLKAIIRGALCHLELKHFAEAVNWCDEGLQIDAKEKKLLEMRAKADKLKRIEQRDVRKANLKEKKERNQNEALLQAIKARNIRLSEAACEDEDSASEGLGELFLDGLSTENPHGARLSLDGQGRLSWPVLFLYPEYAQSDFISAFHEDSRFIDHLMVMFGETPSWDLEQKYCPDNLEVYFEDEDRAELYRVPAKSTLLQVLQHQRYFVKALTPAFLVCVGSSPFCKNFLRGRKVYQIR [I67M],with no effect
2,MEQPGQDPTSDDVMDSFLEKFQSQPYRGGFHEDQWEKEFEKDPLFMSRAPSEIDPRENPDLACLQSIIFDEERSPEEQAKTYKDEGNDYFKEKDYKKAVISYTEGLKKKCADPDLNAVLYTNRAAAQYYLGNFRSALNDVTAARKLKPCHLKAIIRGALCHLELKHFAEAVNWCDEGLQIDAKEKKLLEMRAKADKLKRIEQRDVRKANLKEKKERNQNEALLQAIKARNIRLSEAACEDEDSASEGLGELFLDGLSTENPHGARLSLDGQGRLSWPVLFLYPEYAQSDFISAFHEDSRFIDHLMVMFGETPSWDLEQKYCPDNLEVYFEDEDRAELYRVPAKSTLLQVLQHQRYFVKALTPAFLVCVGSSPFCKNFLRGRKVYQIR [V42D],with no effect

# Variants of: B2
# Conditions: with hsp7c_human HSPA8, P11142
# hsp7c_human HSPA8, P11142, sequence (P11142 whole entry, looked up): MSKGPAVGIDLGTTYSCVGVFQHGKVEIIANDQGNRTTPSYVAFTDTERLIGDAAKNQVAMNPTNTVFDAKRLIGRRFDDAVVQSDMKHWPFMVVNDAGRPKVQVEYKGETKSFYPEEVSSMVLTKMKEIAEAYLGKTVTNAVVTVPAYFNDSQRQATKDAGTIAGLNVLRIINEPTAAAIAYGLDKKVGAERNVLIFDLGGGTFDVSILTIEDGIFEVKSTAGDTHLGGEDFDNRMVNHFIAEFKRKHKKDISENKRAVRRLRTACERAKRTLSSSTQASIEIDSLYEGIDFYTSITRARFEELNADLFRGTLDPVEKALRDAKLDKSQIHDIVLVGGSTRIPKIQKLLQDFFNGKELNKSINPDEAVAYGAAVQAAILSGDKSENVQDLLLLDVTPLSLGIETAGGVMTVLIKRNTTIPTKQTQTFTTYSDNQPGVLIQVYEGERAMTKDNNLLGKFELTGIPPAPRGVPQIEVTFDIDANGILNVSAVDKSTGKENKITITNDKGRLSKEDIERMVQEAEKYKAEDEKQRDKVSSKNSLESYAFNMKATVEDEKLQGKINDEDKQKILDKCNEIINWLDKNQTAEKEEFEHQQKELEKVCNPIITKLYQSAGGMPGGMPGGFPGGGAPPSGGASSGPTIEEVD
row,effect of a mutation on the interaction,Variant
1,with no effect,MEQPGQDPTSDDVMDSFLEKFQSQPYRGGFHEDQWEKEFEKVPLFMSRAPSEIDPRENPDLACLQSIIFDEERSPEAQAKTYKDEGNDYFKEKDYKKAVISYTEGLKKKCADPDLNAVLYTNRAAAQYYLGNFRSALNDVTAARKLKPCHLKAIIRGALCHLELKHFAEAVNWCDEGLQIDAKEKKLLEMRAKADKLKRIEQRDVRKANLKEKKERNQNEALLQAIKARNIRLSEAACEDEDSASEGLGELFLDGLSTENPHGARLSLDGQGRLSWPVLFLYPEYAQSDFISAFHEDSRFIDHLMVMFGETPSWDLEQKYCPDNLEVYFEDEDRAELYRVPAKSTLLQVLQHQRYFVKALTPAFLVCVGSSPFCKNFLRGRKVYQIR [E77A]
2,with no effect,MEQPGQDPTSDDVMDSFLEKFQSQPYRGGFHEDQWEKEFEKVPLFMSRAPSEIDPRENPDLACLQSIIFDEERSPEEQAKTYKDEGNDYFKEKDYKKAVISYTEGLKKKCADPDLNAVLYTNRAAAQYYLGNFRSALNDVTAARKLKPCHLKAIIRGALCHLELKHFAEAVNWCDEGLQIDAKEKKLLEMRAKADKLKRIEQRDVRKANLKEKKERKQNEALLQAIKARNIRLSEAACEDEDSASEGLGELFLDGLSTENPHGARLSLDGQGRLSWPVLFLYPEYAQSDFISAFHEDSRFIDHLMVMFGETPSWDLEQKYCPDNLEVYFEDEDRAELYRVPAKSTLLQVLQHQRYFVKALTPAFLVCVGSSPFCKNFLRGRKVYQIR [N217K]

# Second part, the variant before the results:
row,Variant,effect of a mutation on the interaction
1,MEQPGQDPTSDDVMDSFLEKFQSQPYRGGFHEDQWEKEFEKVPLFMSRAPSEIDPRENPDLACLQSMIFDEERSPEEQAKTYKDEGNDYFKEKDYKKAVISYTEGLKKKCADPDLNAVLYTNRAAAQYYLGNFRSALNDVTAARKLKPCHLKAIIRGALCHLELKHFAEAVNWCDEGLQIDAKEKKLLEMRAKADKLKRIEQRDVRKANLKEKKERNQNEALLQAIKARNIRLSEAACEDEDSASEGLGELFLDGLSTENPHGARLSLDGQGRLSWPVLFLYPEYAQSDFISAFHEDSRFIDHLMVMFGETPSWDLEQKYCPDNLEVYFEDEDRAELYRVPAKSTLLQVLQHQRYFVKALTPAFLVCVGSSPFCKNFLRGRKVYQIR [I67M],decreasing interaction strength
2,MEQPGQDPTSDDVMDSFLEKFQSQPYRGGFHEDQWEKEFEKDPLFMSRAPSEIDPRENPDLACLQSIIFDEERSPEEQAKTYKDEGNDYFKEKDYKKAVISYTEGLKKKCADPDLNAVLYTNRAAAQYYLGNFRSALNDVTAARKLKPCHLKAIIRGALCHLELKHFAEAVNWCDEGLQIDAKEKKLLEMRAKADKLKRIEQRDVRKANLKEKKERNQNEALLQAIKARNIRLSEAACEDEDSASEGLGELFLDGLSTENPHGARLSLDGQGRLSWPVLFLYPEYAQSDFISAFHEDSRFIDHLMVMFGETPSWDLEQKYCPDNLEVYFEDEDRAELYRVPAKSTLLQVLQHQRYFVKALTPAFLVCVGSSPFCKNFLRGRKVYQIR [V42D],decreasing interaction strength

# Variants of: B2
# Conditions: with hs90b_human HSP90AB1, P08238
# Remark: another data set of the same source
row,effect of a mutation on the interaction,Variant
1,disrupting interaction strength,MEQPGQDPTSDDVMDSFLEKFQSQPYRGGFHEDQWEKEFEKVPLFMSRAPSEIDPRENPDLACLQSIIFDEERSPEEQAKTYKDEGNDYFKEKDYKKAVISYTEGLKKKCADPDLNAVLYTNRAAAQYYLGNFRSALNDVTAARKLKPCHLKAIIEGALCHLELKHFAEAVNWCDEGLQIDAKEKKLLEMRAKADKLKRIEQRDVRKANLKEKKERNQNEALLQAIKARNIRLSEAACEDEDSASEGLGELFLDGLSTENPHGARLSLDGQGRLSWPVLFLYPEYAQSDFISAFHEDSRFIDHLMVMFGETPSWDLEQKYCPDNLEVYFEDEDRAELYRVPAKSTLLQVLQHQRYFVKALTPAFLVCVGSSPFCKNFLRGRKVYQIR [R156E]
2,disrupting interaction strength,MEQPGQDPTSDDVMDSFLEKFQSQPYRGGFHEDQWEKEFEKVPLFMSRAPSEIDPRENPDLACLQSIIFDEERSPEEQAKTYKDEGNDYFKEKDYKKAVISYTEGLKKKCADPDLNAVLYTNRAAAQYYLGNFRSALNDVTAARKLKPCHLEAIIEGALCHLELKHFAEAVNWCDEGLQIDAKEKKLLEMRAKADKLKRIEQRDVRKANLKEKKERNQNEALLQAIKARNIRLSEAACEDEDSASEGLGELFLDGLSTENPHGARLSLDGQGRLSWPVLFLYPEYAQSDFISAFHEDSRFIDHLMVMFGETPSWDLEQKYCPDNLEVYFEDEDRAELYRVPAKSTLLQVLQHQRYFVKALTPAFLVCVGSSPFCKNFLRGRKVYQIR [K152E;R156E]
3,disrupting interaction strength,MEQPGQDPTSDDVMDSFLEKFQSQPYRGGFHEDQWEKEFEKVPLFMSRAPSEIDPRENPDLACLQSIIFDEERSPEEQAKTYKDEGNDYFKEKDYKKAVISYTEGLKKKCADPDLNAVLYTNRAAAQYYLGNFRSALNDVTAARKLKPCHLEAIIRGALCHLELKHFAEAVNWCDEGLQIDAKEKKLLEMRAKADKLKRIEQRDVRKANLKEKKERNQNEALLQAIKARNIRLSEAACEDEDSASEGLGELFLDGLSTENPHGARLSLDGQGRLSWPVLFLYPEYAQSDFISAFHEDSRFIDHLMVMFGETPSWDLEQKYCPDNLEVYFEDEDRAELYRVPAKSTLLQVLQHQRYFVKALTPAFLVCVGSSPFCKNFLRGRKVYQIR [K152E]
